Measured values as given in paper PMC11602143, “Human selenocysteine synthase, SEPSECS, has evolved to optimize binding of a tRNA-based substrate” (Nucleic Acids Research, 2024).

B1: Δ470 SEPSECS (human SEPSECS with Asp470 mutated to a stop codon) (domain or fragment, UniProt Q9HD40 1-469, looked up)
chain: MNRESFAAGERLVSPAYVRQGCEARRSHEHLIRLLLEKGKCPENGWDESTLELFLHELAIMDSNNFLGNCGVGEREGRVASALVARRHYRFIHGIGRSGDISAVQPKAAGSSLLNKITNSLVLDIIKLAGVHTVANCFVVPMATGMSLTLCFLTLRHKRPKAKYIIWPRIDQKSCFKSMITAGFEPVVIENVLEGDELRTDLKAVEAKVQELGPDCILCIHSTTSCFAPRVPDRLEELAVICANYDIPHIVNNAYGVQSSKCMHLIQQGARVGRIDAFVQSLDKNFMVPVGGAIIAGFNDSFIQEISKMYPGRASASPSLDVLITLLSLGSNGYKKLLKERKEMFSYLSNQIKKLSEAYNERLLHTPHNPISLAMTLKTLDEHRDKAVTQLGSMLFTRQVSGARVVPLGSMQTVSGYTFRGFMSHTNNYPCAYLNAASAIGMKMQDVDLFIKRLDRCLKAVRKERSKES
notes: Human SEPSECS truncated by a stop codon at the position of Asp470 (removes the α15–α16 loop and α16); made from pET15b-hWTSSS by site-directed mutagenesis; Same vector and purification as the wild type; also called Δ470 human SEPSECS; truncated mutant
B2: Human SEPSECS (O-phosphoseryl-tRNA^Sec selenium transferase), wild type (enzyme)
chain: MNRESFAAGERLVSPAYVRQGCEARRSHEHLIRLLLEKGKCPENGWDESTLELFLHELAIMDSNNFLGNCGVGEREGRVASALVARRHYRFIHGIGRSGDISAVQPKAAGSSLLNKITNSLVLDIIKLAGVHTVANCFVVPMATGMSLTLCFLTLRHKRPKAKYIIWPRIDQKSCFKSMITAGFEPVVIENVLEGDELRTDLKAVEAKVQELGPDCILCIHSTTSCFAPRVPDRLEELAVICANYDIPHIVNNAYGVQSSKCMHLIQQGARVGRIDAFVQSLDKNFMVPVGGAIIAGFNDSFIQEISKMYPGRASASPSLDVLITLLSLGSNGYKKLLKERKEMFSYLSNQIKKLSEAYNERLLHTPHNPISLAMTLKTLDEHRDKAVTQLGSMLFTRQVSGARVVPLGSMQTVSGYTFRGFMSHTNNYPCAYLNAASAIGMKMQDVDLFIKRLDRCLKAVRKERSKESDDNYDKTEDVDIEEMALKLDNVLLDTYQDASS
notes: Human SEPSECS, wild type, cloned into pET15b (pET15b-hWTSSS); no tag cleavage is described in the purification; PLP cofactor is present in the buffers; also called WT SEPSECS; human WT SEPSECS

Biological target: the molecule itself
Assay: SEC-MALS; protein alone, 250 μl at 1 and 4 mg/ml on Superose 6 Increase 10/300; 20 mM Tris pH 8.0, 150 mM NaCl, 5% glycerol, 0.5 mM TCEP, 10 μM PLP; oligomeric state of the holoenzyme

| Protein | stoichiometry N |
| --- | --- |
| B1 | 4 |
| B2 | 4 |
